Measured values taken from patent publication US20180030149A1 (AVEO PHARMACEUTICALS, published 2018).
Like-named read-outs stand apart in the source and are kept apart here. One block for each binder: values may come before it.

Experiments:
[1] = molecular target: T1, recombinant human ErbB3/Fc fusion protein (human, UniProt P21860 20-643); assay: ECL competition; inhibition of NRG1-β1 binding to plate-coated rhErbB3/Fc
T1 construct: Bought (R&D Systems, Cat. No. 348-RB); the NRG1-α1 assay names Cat. No. 4518-RB instead; also called rhErbB3-Fc; rhErbB3/Fc; not shown: Fc portion of the bought fusion protein
Experimental: (§1) MA2400 96-well standard binding plates (Meso Scale Discovery, Cat. No. L15XA-6) were coated with 50 μl of 0.5 μg/mL rhErbB3/Fc (R&D systems, Cat. No. 348-RB) in PBS (Invitrogen, Cat. No. 14040-133) for overnight at 4° C. with no agitation. The plates then were washed 3 times with PBS+0.1% Tween20 (Sigma P5927) and blocked with 200 μl of PBS containing 5% BSA (Sera Care Life Sciences, Cat. No. AP-4510-80) for 1.5 hour at room temperature. After washing the plates 3 times with PBS, 25 μl of the antibody dilutions were added to the plates for another hour at room temperature with agitation. […] The plates then were washed 3 times with PBS, and 150 μl of 1× read buffer (Meso Scale Discovery, Cat. No. R92TC-1) was added to each well before the plates were analyzed on a Sector® Imager 2400 (Meso Scale Discovery) instrument.

[2] = molecular target: T2, human ErbB3 (human, UniProt P21860 20-1342); assay: cell-based or functional assay
[3] = molecular target: T2, human ErbB3; assay: cell-based or functional assay; remark: listed apart in the source
[4] = molecular target: T1, recombinant human ErbB3/Fc fusion …; assay: SPR Biacore T100, 25 C; antibody captured on anti-mouse IgG, rhErbB3-Fc injected
Experimental: Rabbit anti-mouse IgGs (Biacore, Cat. No. BR-1008-38) were immobilized on carboxymethylated dextran CM4 sensor chips (Biacore, Cat. No. BR-1005-34) by amine coupling (BIAcore, Cat. No. BR-1000-50) using a standard coupling protocol according to vendor's instructions. The analyses were performed at 25° C., using PBS (Invitrogen, Cat. No. 14040-133) containing 0.05% surfactant P20 (Biacore, Cat. No. BR-1000-54) as running buffer.
The antibodies were captured in individual flow cells at a flow rate of 10 μl/minute. Injection time was varied for each antibody to yield an Rₘₐₓ between 30 and 60 RU. […] The dissociation phase was monitored for up to 3600 seconds. The surface was then regenerated with two 60-seconds injection of 10 mM Glycine-HCl, pH 1.7 (made from Glycine pH 1.5 (Biacore, Cat. No. BR-1003-54) and pH 2.0 (Biacore, Cat. No. BR-1003-55)) at a flow rate of […].
Kinetic parameters were determined using the kinetic function of the BIAevaluation software (Biacore) with double reference subtraction. Kinetic parameters for each antibody, kₐ (association rate constant), kd (dissociation rate constant) and KD (equilibrium dissociation constant) were determined.

[5] = molecular target: T1, recombinant human ErbB3/Fc fusion …; assay: ECL (MSD) competition: rhErbB3/Fc coated on the plate, antibody dilutions, then NRG1-β1 at 0.25 µg/ml; bound NRG1-β1 detected
Experimental: as §1

[6] = molecular target: T1, recombinant human ErbB3/Fc fusion …; assay: ECL competition; inhibition of NRG1-β1 binding to plate-coated rhErbB3/Fc; remark: listed apart in the source
Experimental: (§2) Multi-array 96-well standard binding plates (Meso Scale Discovery, Cat. No. L15XA-3) were coated with 50 μl of 0.5 μg/mL rhErbB3/Fc (R&D systems, Cat. No. 348-RB) in PBS (Invitrogen, Cat. No. 14040-133) for one hour at room temperature with no agitation. The plates then were washed three times with PBS+0.1% Tween20 (Sigma P5927) and blocked with 200 μl of 100% Horse Serum, heat inactivated (GIBCO, Cat. No. 26050-088) for 1.5 hours at room temperature. After washing the plates three times with PBS+0.1% Tween, 25 μl of the antibody dilutions were added to the plates for another hour at room temperature with agitation. […] The plates then were washed three times with PBS+0.1% Tween, and 150 μl of 1× read buffer (Meso Scale Discovery, Cat. No. R92TC-1) was added to each well before the plates were analyzed on a Sector® Imager 2400 (Meso Scale Discovery) instrument.

[7] = molecular target: T1, recombinant human ErbB3/Fc fusion …; assay: ECL (MSD) competition: rhErbB3/Fc coated on the plate, antibody dilutions, then NRG1-β1 at 0.25 µg/ml; bound NRG1-β1 detected; remark: listed apart in the source
Experimental: as §2

[8] = molecular target: T3, recombinant human ErbB3 monomeric protein (cleaved rhErbB3) (human, UniProt P21860 20-643, limits assumed); assay: SPR Biacore 37 C; purified antibody captured on anti-human Fc, cleaved rhErbB3 0.3125-5.0 nM
T3 construct: Monomer made by protease cleavage of the Fc fusion; also called Monomeric ErbB3
Experimental: The analyses were performed at 37° C. using PBS (Invitrogen, Catalog No. 14040-133) containing 0.05% surfactant P20 (Biacore, Catalog No. BR-1000-54) as running buffer.
The antibodies were captured in individual flow cells at a flow rate of […]. Injection time was varied for each antibody to yield an Rₘₐₓ between 30 and 60 RU. […] The dissociation phase was monitored for up to 1200 seconds. The surface was then regenerated with two 60 second injections of Glycine pH 2.25 (made from Glycine pH 2.0 (Biacore, Catalog No. BR-1003-55) and pH 2.5 (Biacore, Catalog No. BR-1003-56)) at […].
The binding affinities and kinetics of certain purified monoclonal antibodies were also determined. To further characterize certain antibodies, the surface plasmon resonance experiments described above were conducted using concentrations of cleaved rhErbB3 between 0.3125 nM and 5.0 nM (a 2-fold serial dilution).

B4: Sh24C05-25 N62S IgG1 (antibody)
heavy: not shown
light: DIQMTQSPSSLSASVGDRVTITCRASQEISGYLSWFQQKPGKAPKSLIYAASTLDSGVPSRFSGSGSGTDFTLTISSLQPEDFATYYCLQYDSYPYTFGQGTKLEIKRTVAAPSVFIFPPSDEQLKSGTASVVCLLNNFYPREAKVQWKVDNALQSGNSQESVTEQDSKDSTYSLSSTLTLSKADYEKHKVYACEVTHQGLSSPVTKSFNRGEC
notes: Humanized, human IgG1/kappa
inhibition of phosphorylation of ErbB3 in exponentially growing SKBR-3 cells (ELISA) [2]: ≥ 50%
IC50 [6]: 122 pM
IC50 (read off the curve) [7]: ~100 pM
Kd [8]: 160 pM
koff [8]: 0.00045 s⁻¹
kon [8]: 2.9e+06 M⁻¹ s⁻¹

B5: Sh24C05-25 N62S IgG2 (antibody)
heavy: QVQLVESGGGLVKPGGSLRLSCAASGFTFSDYAMSWIRQAPGKGLEWVSTISDGGTYTYYPDSVKGRFTISRDNAKNSLYLQMNSLRAEDTAVYYCAREWGDYDGFDYWGQGTLVTVSSASTKGPSVFPLAPCSRSTSESTAALGCLVKDYFPEPVTVSWNSGALTSGVHTFPAVLQSSGLYSLSSVVTVPSSNFGTQTYTCNVDHKPSNTKVDKTVERKCCVECPPCPAPPVAGPSVFLFPPKPKDTLMISRTPEVTCVVVDVSHEDPEVQFNWYVDGVEVHNAKTKPREEQFNSTFRVVSVLTVVHQDWLNGKEYKCKVSNKGLPAPIEKTISKTKGQPREPQVYTLPPSREEMTKNQVSLTCLVKGFYPSDIAVEWESNGQPENNYKTTPPMLDSDGSFFLYSKLTVDKSRWQQGNVFSCSVMHEALHNHYTQKSLSLSPGK
light: DIQMTQSPSSLSASVGDRVTITCRASQEISGYLSWFQQKPGKAPKSLIYAASTLDSGVPSRFSGSGSGTDFTLTISSLQPEDFATYYCLQYDSYPYTFGQGTKLEIKRTVAAPSVFIFPPSDEQLKSGTASVVCLLNNFYPREAKVQWKVDNALQSGNSQESVTEQDSKDSTYSLSSTLTLSKADYEKHKVYACEVTHQGLSSPVTKSFNRGEC
notes: Humanized, human IgG2/kappa
inhibition of phosphorylation of ErbB3 in exponentially growing SKBR-3 cells (ELISA) [2]: ≥ 50%
IC50 [6]: 112 pM
IC50 (read off the curve) [7]: ~100 pM
Kd [8]: 120 pM
koff [8]: 0.00034 s⁻¹
kon [8]: 2.7e+06 M⁻¹ s⁻¹

B6: Sh24C05-31 N62S IgG2 (antibody)
heavy: QVQLVESGGGLVKPGGSLRLSCAASGFTFSDYAMSWIRQAPGKGLEWVSTISDGGTYTYYPDSVKGRFTISRDNAKNSLYLQMNSLRAEDTAVYYCAREWGDYDGFDYWGQGTLVTVSSASTKGPSVFPLAPCSRSTSESTAALGCLVKDYFPEPVTVSWNSGALTSGVHTFPAVLQSSGLYSLSSVVTVPSSNFGTQTYTCNVDHKPSNTKVDKTVERKCCVECPPCPAPPVAGPSVFLFPPKPKDTLMISRTPEVTCVVVDVSHEDPEVQFNWYVDGVEVHNAKTKPREEQFNSTFRVVSVLTVVHQDWLNGKEYKCKVSNKGLPAPIEKTISKTKGQPREPQVYTLPPSREEMTKNQVSLTCLVKGFYPSDIAVEWESNGQPENNYKTTPPMLDSDGSFFLYSKLTVDKSRWQQGNVFSCSVMHEALHNHYTQKSLSLSPGK
light: DIQMTQSPSSLSASVGDRVTITCRASQEISGYLSWYQQKPGKAPKRLIYAASTLDSGVPSRFSGSGSGTEFTLTISSLQPEDFATYYCLQYDSYPYTFGQGTKLEIKRTVAAPSVFIFPPSDEQLKSGTASVVCLLNNFYPREAKVQWKVDNALQSGNSQESVTEQDSKDSTYSLSSTLTLSKADYEKHKVYACEVTHQGLSSPVTKSFNRGEC
notes: Humanized, human IgG2/kappa
inhibition of phosphorylation of ErbB3 in exponentially growing SKBR-3 cells (ELISA) [2]: ≥ 50%
IC50 [6]: 86 pM
IC50 (read off the curve) [7]: ~100 pM
Kd [8]: 74 pM
koff [8]: 0.00024 s⁻¹
kon [8]: 3.2e+06 M⁻¹ s⁻¹

Continued, values first:

IC50 [1]: 346 pM
inhibition of NRG1-β1 induced phosphorylation of Akt in MCF7 and DU145 cells (ELISA) [2]: ≥ 80%
inhibition of NRG1-β1 induced phosphorylation of ErbB3 in SKBR-3 cells (ELISA, 5 µg/ml antibody) [2]: ≥ 50%
IC50, NRG1-β1 dependent proliferation of MCF7 cells (MTT) [3]: 1000 pM
Kd [4]: 91 pM
koff [4]: 2.5e-05 s⁻¹
kon [4]: 280000 M⁻¹ s⁻¹
IC50 (read off the curve) [5]: ~300 pM
B1: 18H02 (antibody, mouse IgG1, kappa, V domains shown)
VH: QIQLVQSGPELKKPGEAVKISCKSSGYTFTTYGMSWVKQAPGRALKWMGWINTYSGVPTYADDFKGRFAFSLESSASTAYLQINNLKNEDTATYFCARGRDGYQVAWFAYWGQGTLVTVSA
VL: ETTVTQSPASLSMAIGDKVTIRCITSTDIDDDMNWFQQKPGEPPKLLISEGNTLRPGVPSRFSGSGYGTDFIFTIENMLSEDVADYYCLQSDNLPYTFGGGTKLEIKR
notes: Murine IgG1/kappa, from hybridoma; also called anti-hErbB3 monoclonal antibody 18H02

IC50 [1]: 337 pM
inhibition of NRG1-β1 induced phosphorylation of Akt in MCF7 and DU145 cells (ELISA) [2]: ≥ 80%
inhibition of NRG1-β1 induced phosphorylation of ErbB3 in SKBR-3 cells (ELISA, 5 µg/ml antibody) [2]: ≥ 50%
IC50, NRG1-β1 dependent proliferation of MCF7 cells (MTT) [3]: 390 pM
Kd [4]: 6.5 pM
koff [4]: 9.2e-06 s⁻¹
kon [4]: 1.5e+06 M⁻¹ s⁻¹
IC50 (read off the curve) [5]: ~300 pM
B2: 24C05 (antibody, mouse IgG1, kappa)
heavy: EVQLVESGGGLVKPGGSLKLSCAASGFTFSDYAMSWVRQTPEKRLEWVATISDGGTYTYYPDNVKGRFTISRDNAKNNLYLQMSHLKSEDTAMYYCAREWGDYDGFDYWGQGTTLTVSSAKTTPPSVYPLAPGSAAQTNSMVTLGCLVKGYFPEPVTVTWNSGSLSSGVHTFPAVLQSDLYTLSSSVTVPSSTWPSQTVTCNVAHPASSTKVDKKIVPRDCGCKPCICTVPEVSSVFIFPPKPKDVLTITLTPKVTCVVVDISKDDPEVQFSWFVDDVEVHTAQTQPREEQFNSTFRSVSELPIMHQDWLNGKEFKCRVNSAAFPAPIEKTISKTKGRPKAPQVYTIPPPKEQMAKDKVSLTCMITDFFPEDITVEWQWNGQPAENYKNTQPIMDTDGSYFVYSKLNVQKSNWEAGNTFTCSVLHEGLHNHHTEKSLSHSPGK
light: DIQMTQSPSSLSASLGERVSLTCRASQEISGYLSWLQQKPDGTIKRLIYAASTLDSGVPKRFSGSRSGSDYSLTIGSLESEDLADYYCLQYDSYPYTFGGGTKLEIKRADAAPTVSIFPPSSEQLTSGGASVVCFLNNFYPRDINVKWKIDGSERQNGVLNSWTDQDSKDSTYSMSSTLTLTKDEYERHNSYTCEATHKTSTSPIVKSFNRNEC
notes: Murine IgG1/kappa, from hybridoma; also called murine 24C05; 24C05 IgG1

IC50 [1]: 223 pM
inhibition of NRG1-β1 induced phosphorylation of Akt in MCF7 and DU145 cells (ELISA) [2]: ≥ 80%
inhibition of NRG1-β1 induced phosphorylation of ErbB3 in SKBR-3 cells (ELISA, 5 µg/ml antibody) [2]: ≥ 50%
IC50, NRG1-β1 dependent proliferation of MCF7 cells (MTT) [3]: 470 pM
Kd [4]: 250 pM
koff [4]: 9.3e-05 s⁻¹
kon [4]: 380000 M⁻¹ s⁻¹
IC50 (read off the curve) [5]: ~100 pM
B3: 04D01 (antibody, mouse IgG1, kappa, V domains shown)
VH: QVQLQQPGAELVRPGTSVKLSCKASGYTFTSHWLHWVKQRPGQGLEWIGVLDPSDFYSNYNQNFKGKATLTVDTSSSTAYMQLSSLTSEDSAVYYCARGLLSGDYAMDYWGQGTSVTVSS
VL: DVLMTQIPLSLPVSLGDQASISCRSSQSIVHSNGNTYLEWYLQKPGQSPKSLIYKVSNRFSGVPDRFSGSGSGTDFTLKISRVEAEDLGVYYCFQGSYVPWTFGGGTKLEIKR
notes: Murine IgG1/kappa, purified from hybridoma; also called anti-hErbB3 monoclonal antibody 04D01
